From patent publication US20110236390A1 (Janssen / Centocor, published 2011)
Changes are numbered by the printed parent chain.

T1: rhIL-17A/F heterodimer (R&D Systems) (human, UniProt Q16552 20-155; Q96PD4 31-163, limits assumed)
T1 sequence (looked up) 1: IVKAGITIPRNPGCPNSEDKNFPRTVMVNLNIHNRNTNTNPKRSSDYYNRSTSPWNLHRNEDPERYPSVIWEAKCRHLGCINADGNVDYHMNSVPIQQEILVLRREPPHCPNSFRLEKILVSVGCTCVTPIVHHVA
T1 sequence (looked up) 2: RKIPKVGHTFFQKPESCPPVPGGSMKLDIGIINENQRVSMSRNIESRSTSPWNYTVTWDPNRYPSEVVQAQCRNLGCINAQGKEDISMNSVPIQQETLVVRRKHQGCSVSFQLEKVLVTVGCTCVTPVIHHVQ

T2: cynomolgus IL-17A (cynomolgus, UniProt Q16552 24-155 (human entry), limits assumed)
T2 chain: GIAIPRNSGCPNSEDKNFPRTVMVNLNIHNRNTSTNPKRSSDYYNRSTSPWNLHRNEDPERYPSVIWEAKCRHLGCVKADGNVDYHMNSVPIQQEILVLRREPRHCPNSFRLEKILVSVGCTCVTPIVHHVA

T3: human IL-17A (human, UniProt Q16552 24-155)
T3 sequence: T2 chain with A3T, S8P, S34N, V77I, K78N, R104P

B1: mAb6785 (antibody, human IgG1, lambda, V domains shown)
VH: QVQLLESGGGLVQPGGSLRLSCAASGFTFSSYAMSWVRQAPGKGLEWVSTISLTSGFTYYADSVKGRFTISRDNSKNTLYLQMNSLRAEDTAVYYCARQLTLDVWGQGTLVTVSS
VL: QSVLTQPPSVSVAPGQTARISCSGDNLGDKYANWYQQKPGQAPVLVIYDDIDRPSGIPERFSGSNSGNTATLTISGTQAEDEADYYCGSYDFFLGMIVFGGGTKLTVLG
notes: Framework-engineered mAb; also called engineered form of MOR8302
B2: mAb7146 (antibody, human IgG1, lambda, V domains shown)
VH: B1 VH with L53M
VL: B1 VL with M96L
notes: Framework-engineered mAb; also called engineered form of MOR8160
B3: mAb1926 (antibody, human IgG1, lambda, V domains shown)
VH: B1 VH with L53M, T101M
VL: B1 VL
notes: Framework-engineered mAb; also called mAbtr1926; engineered form of MOR7700
B4: mAb3077 (antibody, human IgG1, lambda, V domains shown)
VH: QVQLVQSGAEVKKPGSSVKVSCKASGGTFSSYAISWVRQAPGQGLEWMGSIIPWFGWTNYAQKFQGRVTITADESTSTAYMELSSLRSEDTAVYYCARDSEYYFDHWGQGTLVTVSS
VL: DIQMTQSPSSVSASVGDRVTITCRASQGISNWLNWYQQKPGKAPKLLIYAASSLQSGVPSRFSGSGSGTDFTLTISSLQPEDFATYYCQQYSDDPTFGQGTKVEIKG
notes: Framework-engineered mAb; also called engineered form of MOR7785
B5: mAb624 (antibody, human IgG1, lambda, V domains shown)
VH: B4 VH with S50R, N59S
VL: B4 VL
notes: Framework-engineered mAb; also called engineered form of MOR7708
B6: mAb7024 (antibody, human IgG1, lambda, V domains shown)
VH: B4 VH with W57T
VL: B4 VL
notes: Framework-engineered mAb; also called engineered form of MOR8104
B7: mAb4538 (antibody, human IgG1, lambda, V domains shown)
VH: QVQLQQSGPGLVKPSQTLSLTCAISGDSVSSSSAAWGWIRQSPSRGLEWLGRISYRSKWYNDYAVSVKSRITINPDTSKNQFSLQLNSVTPEDTAVYYCAREVDSMYYSYFDIWGQGTLVTVSS
VL: EIVLTQSPATLSLSPGERATLSCRASQNVWAFYLAWYQQKPGQAPRLLIYGASNRATGIPARFSGSGSGTDFTLTISSLEPEDFAVYYCQQYRSTLSLTFGQGTKVEIKG
notes: Framework-engineered mAb; also called engineered form of MOR7706
B8: mAb3584 (antibody, human IgG1, lambda, V domains shown)
VH: B7 VH with M106I
VL: B7 VL
notes: Framework-engineered mAb; also called engineered form of MOR8299
B9: mAb732 (antibody, human IgG1, lambda, V domains shown)
VH: B7 VH
VL: B7 VL with Q90T, R93Y, T95S, L96P
notes: Framework-engineered mAb; also called engineered form of MOR7775
B10: mAb4168 (antibody, human IgG1, lambda, V domains shown)
VH: B7 VH with M106T
VL: B7 VL with Q90T, R93Y, T95S, L96P
notes: Framework-engineered mAb; also called engineered form of MOR8103
B11: Fab6468, a recombinant His6-tagged Fab of mAb6785 (Fab, V domains shown)
VH: B1 VH
VL: B1 VL
B12: mAb5548 (antibody, human IgG1, lambda, V domains shown)
VH: B1 VH
VL: B1 VL with M96L
notes: Framework-engineered mAb
B13: MORmAb7700 (antibody, V domains shown)
VH: B1 VH with L5V, L53M, T101M
VL: DIELTQPPSVSVAPGQTARISCSGDNLGDKYANWYQQKPGQAPVLVIYDDIDRPSGIPERFSGSNSGNTATLTISGTQAEDEADYYCGSYDFFLGMIVFGGGTKLTVL
B14: MORmAb8142 (antibody, V domains shown)
VH: B1 VH with L5V, L53M, T101M
VL: B13 VL with M96T
B15: MORmAb8095 (antibody, V domains shown)
VH: B1 VH with L5V, L53I, T101M
VL: B13 VL
B16: MORmAb8143 (antibody, V domains shown)
VH: B1 VH with L5V, L53M, T101M
VL: B13 VL with M96Y
B17: MORmAb8098 (antibody, V domains shown)
VH: B1 VH with L5V, L53M
VL: B13 VL
B18: MORmAb8097 (antibody, V domains shown)
VH: B1 VH with L5V, L53M, T101L
VL: B13 VL
B19: MORmAb8141 (antibody, V domains shown)
VH: B1 VH with L5V, L53M, T101M
VL: B13 VL with M96L
B20: MORmAb8096 (antibody, V domains shown)
VH: B1 VH with L5V, T101M
VL: B13 VL
B21: MORmAb7785 (antibody, V domains shown)
VH: B4 VH
VL: DIQMTQSPSSLSASVGDRVTITCRASQGISNWLNWYQQKPGKAPKLLIYAASSLQSGVPSRFSGSGSGTDFTLTISSLQPEDFAVYYCQQYSDDPTFGQGTKVEIK
B22: MORmAb7708 (antibody, V domains shown)
VH: B4 VH with S50R, N59S
VL: B21 VL
B23: MORmAb8105 (antibody, V domains shown)
VH: B4 VH with W57Y
VL: B21 VL
B24: MORmAb8104 (antibody, V domains shown)
VH: B4 VH with W57T
VL: B21 VL
B25: MORmAb7775 (antibody, V domains shown)
VH: B7 VH with S44G
VL: DIVLTQSPATLSLSPGERATLSCRASQNVWAFYLAWYQQKPGQAPRLLIYGASNRATGVPARFSGSGSGTDFTLTISSLEPEDFATYYCTQYYSSPSLTFGQGTKVEIK
B26: MORmAb8102 (antibody, V domains shown)
VH: B7 VH with S44G, M106L
VL: B25 VL
B27: MORmAb8103 (antibody, V domains shown)
VH: B7 VH with S44G, M106T
VL: B25 VL
B28: MORmAb7706 (antibody, V domains shown)
VH: B7 VH with S44G
VL: B25 VL with T90Q, Y93R, S95T, P96L
B29: MORmAb8101 (antibody, V domains shown)
VH: B7 VH with S44G, M106I
VL: B25 VL

Target: T1, rhIL-17A/F heterodimer (R&D Systems)
Test: cell-based or functional assay

**Q.** Which “IL-17A/F heterodimer-induced IL-6 production by NHDF, EC50” value does the source give for B1 here?
**A.** The value was 2 nM.

Target: T2, cynomolgus IL-17A
Test: cell-based or functional assay

**Q.** What does the source list for B2?
**A.** IL-6 production (NHDF), IC50: 0.139 nM; IL-8 production (NHDF), IC50: 0.14 nM

**Q.** Which results are given for B1?
**A.** IL-6 production (NHDF), IC50: 0.193 nM; IL-8 production (NHDF), IC50: 0.563 nM

**Q.** For B3, which “IL-6 production (NHDF), IC50” value is on record?
**A.** Its value is 0.067 nM.

**Q.** How did the “IL-6 production (NHDF), IC50” value turn out when B4 was run?
**A.** Its value is 0.113 nM.

**Q.** And the “IL-8 production (NHDF), IC50” value?
**A.** The value was 0.374 nM.

**Q.** How did the “IL-8 production (NHDF), IC50” value turn out when B5 was run?
**A.** The value was 0.192 nM.

**Q.** How did the “IL-6 production (NHDF), IC50” value turn out when B6 was run?
**A.** Its value is 0.999 nM.

**Q.** What about the “IL-8 production (NHDF), IC50” value of the same binder?
**A.** Its value is 2.98 nM.

**Q.** Which results are given for B7?
**A.** IL-6 production (NHDF), IC50: 0.847 nM; IL-8 production (NHDF), IC50: 1.75 nM

**Q.** For B8, which “IL-6 production (NHDF), IC50” value is on record?
**A.** Its value is 0.823 nM.

**Q.** And the “IL-8 production (NHDF), IC50” value?
**A.** Its value is 1.25 nM.

**Q.** With B9 as the binder, how does the “IL-6 production (NHDF), IC50” value read?
**A.** The value was 2.02 nM.

**Q.** What about the “IL-8 production (NHDF), IC50” value of the same binder?
**A.** The value was 12.5 nM.

**Q.** How did the “IL-6 production (NHDF), IC50” value turn out when B10 was run?
**A.** The value was 2.17 nM.

**Q.** And the “IL-8 production (NHDF), IC50” value?
**A.** Its value is 3.3 nM.

Target: T2, cynomolgus IL-17A
Test: SPR Biacore 3000, Fab captured, IL-17 in solution
Protocol: (§1) Affinity measurements using Surface Plasmon Resonance (SPR) were performed using a Biacore 3000 optical biosensor (Biacore).

**Q.** With B11 as the binder, how does the Kd read?
**A.** Its Kd is 0.205 nM.

Target: T2, cynomolgus IL-17A
Test: SPR Biacore 3000, antibody captured, IL-17 in solution
Protocol: as §1

**Q.** What does the source list for B2?
**A.** Kd: 0.05 nM; Stoichiometry: 2 dimers per anti-IL-17

**Q.** What does the source list for B1?
**A.** Kd: 0.148 nM; Stoichiometry: 2.2 dimers per anti-IL-17

**Q.** For B12, which Kd is on record?
**A.** Its Kd is 0.225 nM.

**Q.** What about the Stoichiometry of the same binder?
**A.** The Stoichiometry was 1.9 dimers per anti-IL-17.

**Q.** B3 was tested. Which Kd did it give?
**A.** The Kd was 0.018 nM.

**Q.** And the Stoichiometry?
**A.** The Stoichiometry was 2.3 dimers per anti-IL-17.

Target: T2, cynomolgus IL-17A
Test: competition ELISA: mAb against biotinylated cyno IL-17A binding to coated IL-17RA-Fc
Protocol: (§2) Clear maxisorp plates were coated with 100 μl/well of 2.5 μg/ml human IL-17RA-Fc (R&D Systems, Minneapolis, Minn.) in 0.1 M sodium carbonate-bicarbonate buffer, pH 9.4 and incubated overnight at 4° C. […] The signal was detected with 100 μl of 1:10,000 dilution of 1 mg/ml SA-HRP (Jackson Immunoresearch, West Grove, Pa.) for 20 minutes at room temperature (RT) followed by 100 μl/well of OPD substrate (Sigma-Aldrich Corp., St. Louis, Mo.).

**Q.** How did the IC50 turn out when B13 was run?
**A.** The IC50 was 0.236 nM.

**Q.** With B14 as the binder, how does the IC50 read?
**A.** The IC50 was 0.139 nM.

**Q.** B15 was tested. Which IC50 did it give?
**A.** Its IC50 is 0.198 nM.

**Q.** With B16 as the binder, how does the IC50 read?
**A.** Its IC50 is 0.252 nM.

**Q.** How did the IC50 turn out when B17 was run?
**A.** The IC50 was 0.289 nM.

**Q.** For B18, which IC50 is on record?
**A.** Its IC50 is 0.3 nM.

**Q.** For B19, which IC50 is on record?
**A.** Its IC50 is 1.44 nM.

**Q.** With B20 as the binder, how does the IC50 read?
**A.** The IC50 was 0.058 nM.

**Q.** B21 was tested. Which IC50 did it give?
**A.** Its IC50 is 0.27 nM.

**Q.** B22 was tested. Which IC50 did it give?
**A.** The IC50 was 0.289 nM.

**Q.** For B23, which IC50 is on record?
**A.** The IC50 was 0.498 nM.

**Q.** With B24 as the binder, how does the IC50 read?
**A.** Its IC50 is 0.306 nM.

**Q.** With B25 as the binder, how does the IC50 read?
**A.** Its IC50 is 0.541 nM.

**Q.** For B26, which IC50 is on record?
**A.** Its IC50 is 0.838 nM.

**Q.** For B27, which IC50 is on record?
**A.** Its IC50 is 0.491 nM.

**Q.** B28 was tested. Which IC50 did it give?
**A.** The IC50 was 0.961 nM.

**Q.** B29 was tested. Which IC50 did it give?
**A.** The IC50 was 0.845 nM.

Target: T2, cynomolgus IL-17A
Test: as above
Remark: another data set of the same source
Protocol: as §2

**Q.** How did the IC50 turn out when B2 was run?
**A.** Its IC50 is 0.067 nM.

**Q.** For B1, which IC50 is on record?
**A.** Its IC50 is 0.076 nM.

**Q.** How did the IC50 turn out when B3 was run?
**A.** The IC50 was 0.053 nM.

**Q.** How did the IC50 turn out when B4 was run?
**A.** The IC50 was 0.054 nM.

**Q.** B5 was tested. Which IC50 did it give?
**A.** Its IC50 is 0.051 nM.

**Q.** How did the IC50 turn out when B6 was run?
**A.** The IC50 was 0.117 nM.

**Q.** B7 was tested. Which IC50 did it give?
**A.** Its IC50 is 0.636 nM.

**Q.** B8 was tested. Which IC50 did it give?
**A.** Its IC50 is 0.489 nM.

**Q.** B9 was tested. Which IC50 did it give?
**A.** Its IC50 is 0.463 nM.

**Q.** With B10 as the binder, how does the IC50 read?
**A.** The IC50 was 0.764 nM.

Target: T3, human IL-17A
Test: binding ELISA, IL-17A protein coated on micro-titer plate, serial dilutions of labeled mAb1926, 37 C 2 h
Description: Human, mouse and rat IL-17A proteins were coated on the micro-titer plates.

**Q.** Does B3 bind?
**A.** Result: binds
